One may read the Kd as the equilibrium constant for the complex coming apart. Lower therefore signals higher affinity.

Consider one substance from article doi:10.1101/634592.

Test [1] addresses PI4KB (isoform 2, E. coli produced, non-phosphorylated) (human) (UniProt Q9UBF8). Briefly: HDX-MS.
Test [2] deals with PI4KB phosphorylated at Ser496 (E. coli produced, PKA treated) (human) (UniProt Q9UBF8). Briefly: HDX-MS.

On to “c10orf76 (untagged, E. coli produced) (from UniProt Q5T2E6 1-689) (natural protein)”, for which the dissociation constant Kd in test [1] is 30 nM; in test [2], 85 nM.
